Measurements taken from paper PMC4151696.

Tests used:
TRF1 = assay: EMSA
TRF2 = assay: EMSA

Cy3 telomeric PCR product (255 bp)
K half (TRF1): 152 nM | K half (TRF2): 111 nM
